Where two headings read alike, the source gives them in different places.

The target in experiment [1] is human PVRIG expressed on the cell surface (human) (UniProt Q6DKI7). Description: cell-based or functional assay.
Experiment [2] deals with T1, human PVRIG expressed on the cell surface (human, UniProt Q6DKI7 41-326).
T1 sequence (looked up): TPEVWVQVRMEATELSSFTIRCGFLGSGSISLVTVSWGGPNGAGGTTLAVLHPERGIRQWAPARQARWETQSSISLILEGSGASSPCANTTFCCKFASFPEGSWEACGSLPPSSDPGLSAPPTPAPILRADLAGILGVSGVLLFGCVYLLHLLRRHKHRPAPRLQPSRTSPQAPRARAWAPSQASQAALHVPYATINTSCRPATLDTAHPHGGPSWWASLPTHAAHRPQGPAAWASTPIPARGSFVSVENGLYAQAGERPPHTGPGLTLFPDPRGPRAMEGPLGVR
Kind of experiment: cell-based or functional assay.

The target in experiment [3] is T1, human PVRIG expressed on the cell …. Description: cell-based or functional assay. This is another data set of the same source.
Experiment [4] has the same target. Kind of experiment: cell-based or functional assay. This is another data set of the same source.
For experiment [5] the target is unchanged. Kind of experiment: cell-based or functional assay. This is another data set of the same source.
Experiment [6] shares this target. Kind of experiment: cell-based or functional assay. The source holds these as a separate data set.
Experiment [7] has as its target T2, cynomolgus monkey PVRIG expressed on the cell surface (cynomolgus monkey, UniProt A0A2K5WVV8 1-322).
T2 construct: whole, on cells; also called cells overexpressing cynomolgus monkey PVRIG; Monkey PVRIG FACS
T2 sequence: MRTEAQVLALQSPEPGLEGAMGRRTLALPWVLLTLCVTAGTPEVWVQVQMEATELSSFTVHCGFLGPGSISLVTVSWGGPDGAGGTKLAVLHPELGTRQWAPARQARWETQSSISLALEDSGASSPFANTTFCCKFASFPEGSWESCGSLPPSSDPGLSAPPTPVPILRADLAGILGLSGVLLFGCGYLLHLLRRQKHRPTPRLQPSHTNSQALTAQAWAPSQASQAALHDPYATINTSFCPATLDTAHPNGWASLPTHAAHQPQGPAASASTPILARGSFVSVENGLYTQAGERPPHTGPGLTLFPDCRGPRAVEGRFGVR
Description: flow cytometry on cells overexpressing cynomolgus monkey PVRIG, labelled anti-human IgG (method of Example 5). As to the method:
The expression plasmid carries human or cynomolgus monkey PVRIG gene sequence was transfected into HEK293 cells, and the over-expressing stable transfection monoclonal cell strain was obtained by antibiotic screening and infinite dilution. Overexpressing cells were seeded into a 96-well plate at 2×10⁵ cells/per well. The cells were centrifuged at 300 g for 5 min, the supernatant was then removed, 100 μL of the test antibody was added, and the mixture was incubated at 4° C. for 1 h. The mixture was centrifuged, the supernatant was removed, the plate was washed 3 times with 200 μL of a washing solution (PBS+2% FBS), and then 100 μL of an anti-human IgG secondary antibody (Invitrogen, A-11013) labeled with Alexa Fluor 488 diluted at 1:500 was added. The mixture was incubated at 4° C. for 1 h. The mixture was centrifuged, the supernatant was removed, and the plate was washed 3 times with 200 μL of a washing solution (PBS+2% FBS). Cells were resuspended in 100 μL of PBS and detected by a flow cytometer (BD FACS Calibur or BD FACS Canto_II).
(§1) Binding of the humanized anti-PVRIG/TIGIT bispecific antibodies to human and cynomolgus monkey PVRIG and their blocking of the ligand of human PVRIG were detected according to the methods of Examples 4, 5 and 6.
(Flow cytometry measures light scatter and fluorescence of single cells or particles in a stream.)

The target of experiment [8] is T3, his-tagged cynomolgus monkey PVRIG recombinant protein (cynomolgus monkey).
T3 construct: expressed in HEK293, purified by Ni-NTA; also called cyno-PVRIG-his; Cynomolgus monkey PVRIG-his
T3 chain: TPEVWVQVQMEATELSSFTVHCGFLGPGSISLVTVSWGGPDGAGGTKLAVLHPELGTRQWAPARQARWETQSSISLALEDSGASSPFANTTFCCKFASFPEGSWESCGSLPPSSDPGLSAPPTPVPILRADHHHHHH
Kind of experiment: ELISA, plate coated with cynomolgus monkey PVRIG recombinant protein, HRP anti-human IgG, OD450 (method of Example 4). As for the experimental part:
Human, cynomolgus monkey or mouse PVRIG protein (at a concentration of 1 μg/mL) was coated on a 96-well microplate at 100 μL per well, and incubated overnight at 4° C. The plate was washed three times with a washing solution at 250 μL per well. For each wash, the plate was shaken for 10 s to ensure adequate cleaning. A blocking solution (PBS+0.05% Tween20+1% BSA) was added at 300 μL per well and the plate was incubated at room temperature for 1 h. The plate was washed three times with a washing solution at 250 μL per well. For each wash, the plate was shaken for 10 s to ensure adequate cleaning. The test anti-PVRIG antibody diluted in diluent was added at 100 μL per well. The mixture was incubated at 37° C. for 1 h. The plate was washed three times with a washing solution at 250 μL per well. HRP-labeled anti-human IgG secondary antibody (Sigma, A8667) was added at 100 μL per well. The mixture was incubated at 37° C. for 1 h. The plate was washed three times with a washing solution at 250 μL per well. […] The OD values at 450 nm were read by using a Thermo MultiSkanFc microplate reader, and the EC₅₀ values of the binding of the anti-PVRIG antibodies to PVRIG were calculated.
as §1
For orientation: In an ELISA, binding on a coated surface is turned into a signal by an enzyme label.

Take IgG4 control antibody: in experiment [1], the IFNγ (pg/mL) in mixed lymphocyte reaction, 20 nM antibody (control) came to 74 pg/mL; the IFNγ (pg/mL) in mixed lymphocyte reaction, 100 nM antibody (control) is 89 pg/mL; the Killing activity (%) of NK92 on K562, 4 nM antibody (control) came to 11.2%; the Killing activity (%) of NK92 on K562, 20 nM antibody (control) is 11.7%. This molecule also showed a Killing activity (%) of NK92 on K562, 100 nM antibody (control) in experiment [1] of 9.2%.

B1: positive antibody Tab5 (antibody, human IgG4 S228P, kappa, F234A L235A, V domains shown)
VH: EVQLVESGGGVVKPGGSLRLSCAASGFTFGTSSMNWVRQAPGKGLEWVAVISFDGTEIHYADSVKGRFTISRDNSKSTVFLQMNSLRPDDTALYYCAKGSGNIYFYSGMDVWGQGTTVTVSS
VL: DIQMTQSPSTLSASVGDRVTITCRAGQSISGWLAWFQQKPGKAPNLLIYETSTLESGVPSRFSGSGSGTEYTLTISSLQPDDFATYYCQQYYSYPLTFGQGTKVEIKR
For B1, the “Experiment on activity in PVRIG reporter cells EC50” value in experiment [2] is 1.38 nM. Besides, in experiment [3], the “IFNγ (pg/mL) in mixed lymphocyte reaction, 4 nM antibody” value is 912 pg/mL; the “IFNγ (pg/mL) in mixed lymphocyte reaction, 20 nM antibody” value came out at 1420 pg/mL; the “IFNγ (pg/mL) in mixed lymphocyte reaction, 100 nM antibody” value is 2350 pg/mL. Besides, in experiment [4], the “Killing activity (%) of NK92 on K562, 20 nM antibody” value worked out at 32% and the “Killing activity (%) of NK92 on K562, 100 nM antibody” value turned out to be 32%. Further, the “Experiment on activity in PVRIG reporter cells EC50” value in experiment [5] was found to be 0.74 nM. Also, in experiment [6], the “Killing activity (%) of NK92 on K562, 4 nM antibody” value was determined as 5.9%; the “Killing activity (%) of NK92 on K562, 20 nM antibody” value turned out to be 7.9%; the “Killing activity (%) of NK92 on K562, 100 nM antibody” value worked out at 10%.

B2: anti-TIGIT antibody 1708 (antibody, human IgG4 S228P, kappa, V domains shown)
VH: EVQLVQSGAEVKKPGASVKVSCKASGYTFTNYWMHWVRQAPGQGLEWMGRIDPDSTGSKYNEKFKTRVTMTRDTSTSTVYMELSSLRSEDTAVYYCAREGAYGYYFDYWGQGTLVTVSS
VL: DIQMTQSPSSLSASVGDRVTITCRASENIYSYLAWYQQKPGKSPKLLIYNARTLAEGVPSRFSGSGSGTDFTLTISSLQPEDFATYYCQYHSGSPLPFGGGTKVEIKR
notes: human IgG4 subtype with S228P; kappa light chain
As to B2, the binding result in experiment [7] is “no binding (tested: about 200 nM)”; in experiment [8], “no binding (tested: about 20 nM)”.

For the origin of these results see patent US20240043530A1 (JIANGSU HENGRUI PHARMACEUTICALS, published 2024).
